Experimental findings from article PMC11074019 are described below.

Experiment [1] deals with Transient receptor potential channel ankyrin 1 (TRPA1) (human (endogenous in MDA-MB-231)) (UniProt O75762).
The target is the same in experiment [2]. This is another data set of the same source.

Sequence of UniProt O75762 (O75762 whole entry): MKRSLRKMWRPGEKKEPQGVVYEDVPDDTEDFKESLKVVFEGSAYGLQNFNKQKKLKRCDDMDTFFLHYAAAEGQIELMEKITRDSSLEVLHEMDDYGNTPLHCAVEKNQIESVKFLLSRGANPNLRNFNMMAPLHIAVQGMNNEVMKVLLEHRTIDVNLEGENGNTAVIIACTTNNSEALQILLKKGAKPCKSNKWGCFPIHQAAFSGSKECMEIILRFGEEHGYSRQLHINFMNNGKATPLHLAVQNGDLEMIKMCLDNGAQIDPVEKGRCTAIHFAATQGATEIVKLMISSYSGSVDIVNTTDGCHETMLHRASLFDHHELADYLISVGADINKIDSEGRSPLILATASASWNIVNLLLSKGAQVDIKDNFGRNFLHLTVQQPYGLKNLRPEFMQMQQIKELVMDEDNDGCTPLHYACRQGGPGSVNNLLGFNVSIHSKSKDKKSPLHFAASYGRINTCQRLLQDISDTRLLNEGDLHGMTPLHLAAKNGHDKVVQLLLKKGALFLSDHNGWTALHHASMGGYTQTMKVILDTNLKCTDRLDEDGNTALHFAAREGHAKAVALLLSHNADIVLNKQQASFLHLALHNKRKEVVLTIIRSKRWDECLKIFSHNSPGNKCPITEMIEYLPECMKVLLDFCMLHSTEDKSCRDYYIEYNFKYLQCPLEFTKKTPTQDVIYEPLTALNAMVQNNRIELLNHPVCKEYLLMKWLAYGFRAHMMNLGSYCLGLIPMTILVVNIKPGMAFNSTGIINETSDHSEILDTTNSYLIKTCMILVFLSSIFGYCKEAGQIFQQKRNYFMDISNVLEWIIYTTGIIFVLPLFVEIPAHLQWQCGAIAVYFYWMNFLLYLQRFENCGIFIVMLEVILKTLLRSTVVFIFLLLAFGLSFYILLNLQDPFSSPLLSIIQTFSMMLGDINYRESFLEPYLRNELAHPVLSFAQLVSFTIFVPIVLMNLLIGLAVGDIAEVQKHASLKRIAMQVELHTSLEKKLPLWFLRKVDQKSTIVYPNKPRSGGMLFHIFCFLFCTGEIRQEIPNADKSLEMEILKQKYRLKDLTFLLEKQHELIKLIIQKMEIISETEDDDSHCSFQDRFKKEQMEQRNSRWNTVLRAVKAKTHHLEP

As for “Recombinant rat NCS-1 (Ca2+-free) (from UniProt P62168 1-190) (natural protein)”, the open probability (Po) of AITC-activated TRPA1 single channels in inside-out patches of MDA-MB-231 CTR cells, with NCS-1 (10 μM) vs without in experiment [1] was determined as 0.883. In experiment [2], this substance gave an inward conductance (IG TRPA1) in inside-out patches of MDA-MB-231 CTR cells, without vs with NCS-1 of 104 pS; an inward conductance (IG TRPA1) in inside-out patches of SH-SY5Y cells, without vs with NCS-1 of 110 pS; an outward conductance (OG TRPA1) in inside-out patches of MDA-MB-231 CTR cells, without vs with NCS-1 of 155 pS; an outward conductance (OG TRPA1) in inside-out patches of SH-SY5Y cells, without vs with NCS-1 of 169 pS.
